Tests used:
[1] = test system: murine mast cell line, MC/9; assay: MC/9 ^3H-thymidine uptake assay; type: cell-based
Description: Another useful biological activity of both naturally-derived and recombinant rat SCF is the ability to cause the proliferation of the […] murine mast cell line, MC/9 (ATCC CRL 8306). MC/9 cells are cultured with a source of […] according to the ATCC CRL 8306 protocol. The medium used in the bioassay is RPMI 1640, 4% fetal bovine serum, 5×10^−5M 2-mercaptoethanol, and 1× glutamine-pen-strep. The MC/9 cells proliferate in response to SCF without the requirement for other growth factors. This proliferation is measured by first culturing the cells for 24 h without growth factors, plating 5000 cells in each well of 96 well plates with test sample for 48 h, pulsing for 4 h with 0.5 uCi ^3H-thymidine (specific activity 20 Ci/mmol), harvesting the solution onto glass fiber filters, and then measuring specifically-bound radioactivity. This assay was used in the purification of mammalian cell derived rat SCF after the ACA 54 gel filtration step, section C2 of this Example. Typically, SCF caused a 4–10 fold increase in CPM over background.

[2] = test system: 5-FU treated mouse bone marrow cells; assay: HPP-CFC assay; type: cell-based; conditions: COS-1 supernatant
Description: There are a variety of biological activities which can be attributed to the natural mammalian rat SCF as well as the recombinant rat SCF protein. One such activity is its effect on early hematopoietic cells. This activity can be measured in a High Proliferative Potential Colony Forming Cell (HPP-CFC) assay [Zsebo, et al., supra (1988)]. To investigate the effects of factors on early hematopoietic cells, the HPP-CFC assay system utilizes mouse bone marrow derived from animals 2 days after 5-fluorouracil (5-FU) treatment. […] The rat SCF is plated in the presence of CSF-1 or IL-6 in semi-solid agar cultures. The agar cultures contain McCoys complete medium (GIBCO), 20% fetal bovine serum, 0.3% agar, and 2×10^5 bone marrow cells/ml. The McCoys complete medium contains the following components: 1× McCoys medium supplemented with 0.1 mM pyruvate, 0.24× essential amino acids, 0.24× non-essential amino acids, 0.027% sodium bicarbonate, 0.24× vitamins, 0.72 mM glutamine, 25 μg/ml L-serine, and 12 μg/ml L-asparagine. The bone marrow cells are obtained from Balb/c mice injected i.v. with 150 mg/kg 5-FU. The femurs are harvested 2 days post 5-FU treatment of the mice and bone marrow is flushed out. The red blood cells are lysed with red blood cell lysing reagent (Becton Dickenson) prior to plating. Test substances are plated with the above mixture in 30 mm dishes. Fourteen days later the colonies (>1 mm in diameter) which contain thousands of cells are scored. This assay was used throughout the purification of natural mammalian cell-derived rat SCF.

KG-1 = KG-1 soft agar cloning assay; type: cell-based, human; conditions: COS-1 supernatant, 25 μl assayed; triplicate
Description: Another activity of recombinant human SCF is the ability to cause proliferation in soft agar of the human acute myelogenous leukemia (AML) cell line, KG-1 (ATCC CCL 246). COS-1 supernatants from transfected cells were tested in a KG-1 agar cloning assay [Koeffler et al., Science, 200, 1153–1154 (1978)] essentially as described except cells were plated at 3000/ml.

normal human bone marrow = assay: Human CFU-GM assay; type: cell-based
human bone marrow = assay: Human bone marrow colony assay; type: cell-based; conditions: COS-1 CM, 20 U/ml EPO, 14 days, colonies ≥0.2 mm
Description: The cDNA of human SCF corresponding to amino acids 1–162 obtained by PCR reactions outlined in Example 3D, was expressed in COS-1 cells as described for the rat SCF in Example 4. COS-1 supernatants were assayed on human bone marrow as well as in the murine HPP-CFC and MC/9 assays. […] The culture conditions of the assay were as follows: human bone marrow from healthy volunteers was centrifuged over Ficoll-Hypaque gradients (Pharmacia) and cultured in 2.1% methyl cellulose, 30% fetal calf serum, 6×10^−5 M 2-mercaptoethanol, 2 mM glutamine, ISCOVE'S medium (GIBCO), 20 U/ml EPO, and 1×10^5 cells/ml for 14 days in a humidified atmosphere containing 7% O2, 10% CO2, and 83% N2. Only those colonies of 0.2 mm in size or larger are indicated.
Recombinant human SCF was tested in agar colony assays on human bone marrow in combination with other growth factors as described above.

W/W^v mice = assay: Bone marrow transplantation model in W/W^v mice; type: in vivo, mouse
Description: A. Rat SCF in Bone Marrow Transplanation COS-1 cells were transfected with V19.8 SCF^1-162 in a large scale experiment (T175 cm^2 flasks instead of 60 mm dishes) as described in Example 4. Approximately 270 ml of supernatant was harvested. This supernatant was chromatographed on wheat germ agglutinin-agarose and S-Sepharose essentially as described in Example 1. The recombinant SCF was evaluated in a bone marrow transplantation model based on murine W/W^v genetics. The W/W^v mouse has a stem cell defect which among other features results in a macrocytic anemia (large red cells) and allows for the transplantation of bone marrow from normal animals without the need for irradiation of the recipient animals [Russel, et al., Science, 144, 844–846 (1964)). […]
In the following example, each group contained six age matched mice. […] The blood profile of the recipient animals is followed at different times post transplantation and engraftment of the donor marrow is determined by the shift of the peripheral blood cells from recipient to donor phenotype. The conversion from recipient to donor phenotype is detected by monitoring the forward scatter profile (FASCAN, Becton Dickenson) of the red blood cells. […] An independent qualitative indicator of engraftment is the hemoglobin type detected by hemoglobin electrophoresis of the recipient blood [Wong, et al., Mol. and Cell. […]

irradiated dogs = assay: Canine DLA-identical littermate marrow transplantation; type: in vivo, dog; conditions: 920 cGy TBI + marrow
Description: SCF alone enhances hematopoietic recovery following bone marrow transplantation. A variety of experimental variables have been tested in a canine model of bone marrow transplantation, Schuening et al., 76 636–640. In one set of experiments for the present invention, dogs received either G-CSF or SCF after 920 cGy of total body irradiation and 4×10^8 mononuclear marrow cells per kilogram from a DLA-identical littermate. The hematologic recovery, as measured by day of neutrophil recovery to 500 or 1000/mm^3, is accelerated when either SCF or G-CSF is administered compared to control animals that received no growth factor (Table 21). Recovery was 2–6 days earlier in animals that received SCF than it was in those that received no growth factor. As noted above, combinations of appropriate growth factors with SCF will accelerate and enhance the response to those growth factors following hematopoietic transplantation.

B1: V19.8 rat SCF^1-162: recombinant rat SCF truncated at amino acid 162, supernatant of COS-1 or CHO cells transfected with V19.8 (protein)
chain: MKKTQTWIITCIYLQLLLFNPLVKTQEICRNPVTDNVKDITKLVANLPNDYMITLNYVAGMDVLPSHCWLRDMVTHLSVSLTTLLDKFSNISEGLSNYSIIDKLGKIVDDLVACMEENAPKNVKESLKKPETRNFTPEEFFSIFNRSIDAFKDFMVASDTSD
In the case of B1, the cpm ([1]; COS-1 supernatant, 3 μl CM assayed) is reported as 9,638 cpm, the cpm ([1]; COS-1 supernatant, 6 μl CM assayed) is reported as 11,482 cpm and the cpm ([1]; COS-1 supernatant, 12 μl CM assayed) is reported as 11,322 cpm. For the same molecule, the cpm ([1]; COS-1 supernatant, 25 μl CM assayed) was 11,648 cpm, the cpm ([1]; stable CHO cell supernatant, volume assayed 1.5) was 7,160 cpm and the cpm ([1]; stable CHO cell supernatant, volume assayed 3) was 14,714 cpm. The cpm ([1]; stable CHO cell supernatant, volume assayed 6) was 30,657 cpm, the cpm ([1]; stable CHO cell supernatant, volume assayed 12) was 34,973 cpm and the cpm ([1]; stable CHO cell supernatant, volume assayed 25) was 33,926 cpm. The “Colony #/200,000 cells” value ([2]; 3 μl CM assayed) was 8, the “Colony #/200,000 cells” value ([2]; 6 μl CM assayed) was 30 and the “Colony #/200,000 cells” value ([2]; 12 μl CM assayed) was over 50. The “Colony #/200,000 cells” value ([2]; 25 μl CM assayed) was over 50, the “Colony #/200,000 cells” value ([2]; 50 μl CM assayed) was over 50 and the “Colony #/200,000 cells” value ([2]; 100 μl CM assayed) was over 50. For the same molecule, the “Colony #/3000 Cells ± SD” value (KG-1) was 6 ± 1, the “synergistic activity in CFU-GM assay” value (normal human bone marrow) was “synergized with human GM-CSF, human IL-3, and human CSF-1” and the “Colony #/100,000 cells (±SEM)” value (normal human bone marrow; average of triplicate cultures, SCF = COS-1 supernatant 4 days after transfection) was 0. For the same molecule, the “Colony #/100,000 cells ± SD” value (human bone marrow; 50 μl assayed) was 10, the “Colony #/100,000 cells ± SD” value (human bone marrow; 100 μl assayed) was 13 ± 1 and the “time to conversion to donor phenotype” value (W/W^v mice; SCF pre-treated group (600 U/ml, 37° C., 20 min)) was at most 29 days post-transplantation. The “engraftment of donor marrow vs untreated control” value (W/W^v mice; cells pre-treated with 600 U/ml or recipients ~400 U/day sub-Q for 3 days) was “engrafted faster”.

B2: rcG-CSF: recombinant canine G-CSF (protein, UniProt P35834 1-175, looked up)
Granulocyte …: MAPLGPTGPLPQSFLLKCLEQMRKVQADGTALQETLCATHQLCHPEELVLLGHALGIPQPPLSSCSSQALQLMGCLRQLHSGLFLYQGLLQALAGISPELAPTLDTLQLDTTDFAINIWQQMEDLGMAPAVPPTQGTMPAFTSAFQRRAGGVLVASNLQSFLELAYRALRHFAKP
For B2, the “Recovery of ANC > 1000/mm^3” value (irradiated dogs; 10 days treatment following transplant) was “Day 8” and the “Recovery of ANC > 500 mm^3” value (irradiated dogs; 10 days treatment following transplant (rcSCF 200, rcG-CSF 10 μg/kg/day SC)) was “Day 7”.

From patent US7144731B2, “SCF antibody compositions and methods of using the same” (Amgen Inc., priority 1989, dated 2006)
